Results on 13 molecules are retold here after US20160002357A1.

Numbering of substitutions follows the chain as printed. Values joined by “and” are separate entries in the source; they are usually repeats but may differ in a detail not shown here. Equal values may be shown once.

As a reminder, the Kd is the concentration at which binding is half-saturated. Read a high Kd as lower affinity. As usually defined, the koff is a measure of how fast the partners let go of each other. By kon is commonly meant the second-order rate constant of association. A lower kon goes with slower complex formation. By t½ is commonly meant how long it takes for the measured level to halve. High values mean slow loss, low ones fast loss.

For test [1], the target named is human soluble CD3 (human) (UniProt P07766). Nature of the test: SPR Biacore. On the technique in general: Surface plasmon resonance follows binding to a sensor surface in real time, without labels.
The target is the same in test [2]. Nature of the test: SPR Biacore 3000, antigen immobilised.
Test [3] has the same target. Nature of the test: SPR Biacore pH 7.4.
Test [4] has the same target. Nature of the test: SPR Biacore pH 7.4, average.
The target is the same in test [5]. Nature of the test: SPR.
The target is the same in test [6]. Nature of the test: SPR Biacore affinity.

Sequence of human soluble CD3 (human) (P07766 23-126, chain 1 of 2): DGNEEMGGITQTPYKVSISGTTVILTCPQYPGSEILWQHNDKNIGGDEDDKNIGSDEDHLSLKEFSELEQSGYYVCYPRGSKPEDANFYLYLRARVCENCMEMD
Sequence of human soluble CD3 (human) (P04234 22-105, chain 2 of 2, further chain): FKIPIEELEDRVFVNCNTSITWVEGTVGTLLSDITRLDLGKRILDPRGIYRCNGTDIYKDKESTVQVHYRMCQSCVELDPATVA

B1: 154 EK-DART (bispecific antibody)
chain 1: QSVLTQPPSVSAAPGQKVTISCSGSSSNIGNNYVSWYQQLPGTAPKLLIYDNNKRPSGIPDRFSGSKSGTSATLGITGLQTGDEADYYCGTWDSSLSSYVFGTGTKVTVLGGGSGGGGEVQLVESGGGLVQPGGSLRLSCAASGFTFNTYAMNWVRQAPGKGLEWVARIRSKYNNYATYYADSVKDRFTISRDDSKNSLYLQMNSLKTEDTAVYYCVRHGNFGNSYVSWFAYWGQGTLVTVSSGGCGGGKVAALKEKVAALKEKVAALKEKVAALKE
chain 2: QAVVTQEPSLTVSPGGTVTLTCRSSTGAVTTSNYANWVQQKPGQAPRGLIGGTNKRAPWTPARFSGSLLGGKAALTITGAQAEDEADYYCALWYSNLWVFGGGTKLTVLGGGGSGGGGEVQLVQSGAEVKKPGASVKVSCKASGYTFTSYGISWVRQAPGQGLEWMGWISAYNGNTNYAQKLQGRVTMTTDTSTSTAYMELRSLRSDDTAVYYCATIDTATAFDIWGQGTMVTVSSGGCGGGEVAALEKEVAALEKEVAALEKEVAALEK
Turning to B1, in test [1], the Kd was 17.1 nM, the koff amounted to 0.00768 s⁻¹ and the kon amounted to 456000 M⁻¹ s⁻¹.

B2: 180 EK-DART (bispecific antibody)
chain 1: B1 chain 1 with L4V, S98A
chain 2: B1 chain 2 with T221N
On to B2, for which, in test [1], the Kd is 15.9 nM, the koff was determined as 0.0111 s⁻¹ and the kon was 706000 M⁻¹ s⁻¹.

B3: 33 EK-DART (bispecific antibody)
chain 1: B1 chain 1 with S98A
chain 2: B1 chain 2 with E119Q, V120M, T216L, D218G, T219S, A220G, T221V
In test [2], B3 returned a Kd of 17.7 nM, a koff of 0.00403 s⁻¹ and a kon of 228000 M⁻¹ s⁻¹.

B4: 165 EK-DART (bispecific antibody)
chain 1: B1 chain 1 with T81A, S98A
chain 2: B1 chain 2 with T221N
Take B4: in test [1], the equilibrium dissociation constant (Kd) worked out at 14.9 nM, the koff came to 0.00417 s⁻¹ and the kon worked out at 278000 M⁻¹ s⁻¹.

B5: 153 EK-DART (bispecific antibody)
chain 1: B1 chain 1 with S98G, Y99V, T103G, V107L
chain 2: B1 chain 2 with T221N, D224G
For the molecule B5, in test [3], the Kd is 22.3 nM and 24 nM; the koff is 0.00618 s⁻¹ and 0.0068 s⁻¹; the kon was 277000 M⁻¹ s⁻¹ and 283000 M⁻¹ s⁻¹; the t½ was 1.76 min and 1.6 min. In test [1], this molecule came in with a Kd of 15.7 nM, a koff of 0.00631 s⁻¹ and a kon of 403000 M⁻¹ s⁻¹. In test [4], this molecule showed a Kd of 23.1 nM.

B6: 34 EK-DART (bispecific antibody)
chain 1: B1 chain 1 with L4V, S98A, Y99W, T103G, V107L
chain 2: B1 chain 2 with T221S
In test [2], B6 registered a Kd of 22.8 nM, a koff of 0.00445 s⁻¹ and a kon of 195000 M⁻¹ s⁻¹.

B7: 177 EK-DART (bispecific antibody)
chain 1: B1 chain 1 with S98A
chain 2: B1 chain 2 with T221N
In test [1], B7 had a Kd of 19.9 nM, an off-rate (koff) of 0.00443 s⁻¹ and a kon of 253000 M⁻¹ s⁻¹.

B8: 35 EK-DART (bispecific antibody)
chain 1: B1 chain 1 with S98A, Y99V, T103G, V107L
chain 2: B1 chain 2 with T221S
As for B8, the Kd in test [5] was found to be 17.1 nM; in test [1], 23.6 nM; in test [2], 23.6 nM. The koff in test [1] and in test [2] was 0.00447 s⁻¹ throughout. For the same molecule, the kon in test [1] and in test [2] was 189000 M⁻¹ s⁻¹ in each case.

B9: 179 EK-DART (bispecific antibody)
chain 1: B1 chain 1 with S26R, N52S, Y99W, T103G, V107L
chain 2: B1 chain 2 with T221N
Regarding B9, in test [1], the Kd worked out at 25.8 nM, the koff is 0.00641 s⁻¹ and the kon is 306000 M⁻¹ s⁻¹.

B10: 178 EK-DART (bispecific antibody)
chain 1: B1 chain 1 with S98A, Y99V, T103G, V107L
chain 2: B1 chain 2 with T221N
On to B10, for which, in test [1], the Kd worked out at 23.1 nM, the koff was determined as 0.00526 s⁻¹ and the kon is 230000 M⁻¹ s⁻¹.

B11: 20 EK-DART (bispecific antibody)
chain 1: AIQMTQSPSSLSASVGDRVTITCRASQSIGKYLNWYQQIPGKAPKLLIYTASTLQTGVPSRFSGSGSGTDFTLTIVSLQPEDFATYYCQQSFNTPRTFGQGTKVEIKGGGSGGGGEVQLVESGGGLVQPGGSLRLSCAASGFTFNTYAMNWVRQAPGKGLEWVARIRSKYNNYATYYADSVKDRFTISRDDSKNSLYLQMNSLKTEDTAVYYCVRHGNFGNSYVSWFAYWGQGTLVTVSSGGCGGGKVAALKEKVAALKEKVAALKEKVAALKE
chain 2: QAVVTQEPSLTVSPGGTVTLTCRSSTGAVTTSNYANWVQQKPGQAPRGLIGGTNKRAPWTPARFSGSLLGGKAALTITGAQAEDEADYYCALWYSNLWVFGGGTKLTVLGGGGSGGGGEVQLVQSGAEVKKPGASVKVSCKASGYTFTGYYMHWVRQAPGQGLEWMGRINPNSGGTNYAQKFQGRVTMTRDTSISTAYMELSRLRSDDTAVYYCAKGSGSGAFDIWGQGTMVTVSSGGCGGGEVAALEKEVAALEKEVAALEKEVAALEK
For the molecule B11, in test [2], the Kd stood at 5.19 nM, the dissociation rate constant (koff) is 0.00609 s⁻¹ and the kon came to 979000 M⁻¹ s⁻¹.

B12: 153 VF-DART (bispecific antibody, not shown: small tags and cut ends)
chain 1: QSVLTQPPSVSAAPGQKVTISCSGSSSNIGNNYVSWYQQLPGTAPKLLIYDNNKRPSGIPDRFSGSKSGTSATLGITGLQTGDEADYYCGTWDSSLSGVVFGGGTKLTVLGGGSGGGGEVQLVESGGGLVQPGGSLRLSCAASGFTFSTYAMNWVRQAPGKGLEWVGRIRSKYNNYATYYADSVKGRFTISRDDSKNSLYLQMNSLKTEDTAVYYCVRHGNFGNSYVSWFAYWGQGTLVTVSS
chain 2: QAVVTQEPSLTVSPGGTVTLTCRSSTGAVTTSNYANWVQQKPGQAPRGLIGGTNKRAPWTPARFSGSLLGGKAALTITGAQAEDEADYYCALWYSNLWVFGGGTKLTVLGGGGSGGGGEVQLVQSGAEVKKPGASVKVSCKASGYTFTSYGISWVRQAPGQGLEWMGWISAYNGNTNYAQKLQGRVTMTTDTSTSTAYMELRSLRSDDTAVYYCATIDTANAFGIWGQGTMVTVSS
modifications: One interchain disulfide between the Linker 2 cysteines; these linkers are left out of the letters.
As for B12, in test [3], the dissociation constant (Kd) was 4.65 nM and 4.77 nM; the off-rate (koff) was 0.00525 s⁻¹ and 0.00555 s⁻¹; the kon was 1.13e+06 M⁻¹ s⁻¹ and 1.16e+06 M⁻¹ s⁻¹; the t½ was 2.07 min and 1.96 min. The Kd in test [6] was 4.71 nM. Also, the Kd in test [4] is 4.71 nM.

B13: 154 VF-DART (bispecific antibody, not shown: small tags and cut ends)
chain 1: B12 chain 1 with G98S, V99Y, G103T, L107V
chain 2: B12 chain 2 with N221T, G224D
B13: in test [6], the Kd was 3.69 nM.
